Assay results: patent US8420311B2, “Method to block the infection by flaviviruses, molecules and uses” (Centro de Ingenieria Genetica y Biotecnologia, priority 2006, dated 2013)

Experiments:
[1] = target: T1, DIIIE2J (DIII from protein E of DV2) (Dengue virus type 2, UniProt P07564); experiment: Direct binding between DIIIE2J and A2M measured by Biacore; parameters: species or system DV2 strain Jamaica 1409; details: restated in example 10
T1 construct: made in house; host or cells: Escherichia coli BL21(DE3)
Procedure: FIG. 6. Direct binding between DIIIE2J and A2M, measured by Biacore. Response curves obtained during and after the injection of (B) Monoclonal antibodies against DV serotype 2 (3H5) and against all FV (4G2); (C) Polyclonal mouse antibody preparations obtained by immunization with DV1 and DV2, including pre-immune sera and (D) A2M dilutions, at concentrations from 0.3 μMol/L to 3 μMol/L. The run was performed on PBS pH 7.4 at 25° C. The different A2M dilutions were loaded at a flow of 5 μL/min for 20 min. The response is represented in resonance units (RU) corrected for unspecific binding using the response from the channel without immobilized protein (less than 5% of the specific signal).
A cm5 chip (Biacore, Sweden) was used for the covalent immobilization of the DIIIE2J and LRP1 proteins. The immobilization was carried out at 25° C., with a flow of 5 μL/min and using HBS (Biacore, Sweden) as running buffer. The surface of the chip was activated by loading 35 μL of 0.2 Mol/L […] (EDC) and 0.05 Mol/L N-hydroxysuccinimide (NHS). Afterwards the proteins, dissolved in 10 mM sodium acetate buffer pH 4.5, were loaded into the system. At the end of the immobilization, 35 μL of 1 M ethanolamine pH 8 were loaded into the system in order to block any remaining free activated groups. The channel to be used as a negative control in each case received only the activating injections with the EDC:NHS solution and the blocking with ethanolamine, employing the same flow and injection volume. The results were analyzed using the BIAevaluation ver. 4.1 software application package (Biacore, Sweden).
In order to estimate the strength of the interaction between DIIIE2J and human A2M, 1600 RU of DIIIE2J were covalently immobilized on a CM5 chip (channel 1, FIG. 6A) (Biacore, Sweden), following the procedure described in the Materials and Methods section. […]

[2] = system: DV; experiment: Inhibition of the infection of Vero cells with DV by pre-incubation of the virus with A2M; type: cell-based, dengue virus; details: stated to correspond with the affinity constant for DIIIE2J
Procedure: (§1) FIG. 20. Inhibition of the infection of Vero cells with DV by pre-incubation with A2M. Viral preparations were incubated 1 h at 25° C. (A and C) or the indicated time (B) with the proteins i. e. activated A2M (A2Mact), non-activated A2M (A2M no act) and a non-related protein (NR). The mixtures of the proteins with the virus were added to monolayers of Vero cells and incubated for 1 h at 37° C. The cell monolayers were washed to eliminate non-bound virus. Next, medium MEM supplemented with non-essential amino acids and 1% FBS, 1% CMC was added and the cells were incubated for 5 days at 37° C. in a CO2 incubator. To visualize the viral plaques, Vero cells were stained using Naphtol Blue Black. All experimental points were performed on duplicates.
To obtain further evidences of the interaction of DV with A2M, the two variants of the protein i.e. activated and non-activated were used in assays of inhibition of infection of Vero cells. The viral preparation was incubated with solutions of activated A2M of higher concentrations than the physiological concentrations reached by this variant of the protein. Solutions of equimolar concentration of non-activated A2M and a non-related protein were used as negative controls. […]

[3] = system: serotype 1 of DV; experiment: as above; type: cell-based, dengue virus; details: FIG. 20C
Procedure: as §1

[4] = system: serotype 3 of DV; experiment: as above; type: cell-based, dengue virus; details: FIG. 20C
Procedure: as §1

[5] = system: Vero cells; experiment: Binding of fluoresceinated proteins to the surface of Vero cells (flow cytometry); type: cell-based, monkey; details: fluoresceinated proteins (FIG. 7A)
Procedure: FIG. 7. Inhibition of the binding of DIIIE2J to Vero cells by A2M and RAPR13. The pre-fixed cells were incubated with the fluoresceinated proteins, and the intensity of the fluorescence due to binding of the fluoresceinated ligands to the cells was measured by flow cytometry. Each experimental point represents data gathered from a minimum of 20 000 cells. (A) Binding of A2M and RAPR13 to the cells. The depicted values correspond to the average of the intensity of the fluorescence at each point of the assay minus the fluorescence obtained with untreated cells. (B) and (C) The cells were incubated with fluoresceinated DIIIE2J in the presence or absence of the non-fluoresceinated ligands, using the molar ratio indicated on each case. The % binding was calculated from the ratio of the average intensity of the fluorescence of the cells incubated with the mixture of fluoresceinated DIIIE2J plus the proteins, between that of the cells incubated only with fluoresceinated DIIIE2J.
In the case of cultured Vero cells, they were detached from the surface of the culture flask without using proteases, by incubation with PBS pH 7.4, 5 mM EDTA for 10 min. at 37° C., gently tapping the outside of the flask.
The cells, collected and washed as described above, were incubated in fixing solution (PBS pH 7.4, 2% paraformaldehyde, 0.01% NaN3, 1 mM CaCl2, 1 mM MgCl2 for 30 min at 4° C., and the fixing solution was then eliminated by centrifugation at 350×g for 5 min a 4° C. […] The intensity of the fluorescence was quantified by flow cytometry on a PAS III cytometer (Partec, Germany). The values for each experimental point were calculated from measurements on a minimum of 20 000 cells.
Given that this cell line is derived from monkey kidney cells and that the ligands for the A2MR receptor used in the assays are of human origin, a preliminary and necessary step was the corroboration of the binding of the RAPR13 and A2M MeNH2 proteins to Vero cells. With this aim, these proteins were fluoresceinated, and their binding to the surface of Vero cells was measured using flow cytometry. […]

T1 sequence (P07564 568-687, looked up, natural form): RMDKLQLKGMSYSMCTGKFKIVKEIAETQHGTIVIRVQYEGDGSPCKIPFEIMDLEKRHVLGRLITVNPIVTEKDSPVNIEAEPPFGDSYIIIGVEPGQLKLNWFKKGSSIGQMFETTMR

B1: activated A2M: purified human A2M activated by incubation with methylamine (protein)
chain: SVSGKPQYMVLVPSLLHTETTEKGCVLLSYLNETVTVSASLESVRGNRSLFTDLEAENDVLHCVAFAVPKSSSNEEVMFLTVQVKGPTQEFKKRTTVMVKNEDSLVFVQTDKSIYKPGQTVKFRVVSMDENFHPLNELIPLVYIQDPKGNRIAQWQSFQLEGGLKQFSFPLSSEPFQGSYKVVVQKKSGGRTEHPFTVEEFVLPKFEVQVTVPKIITILEEEMNVSVCGLYTYGKPVPGHVTVSICRKYSDASDCHGEDSQAFCEKFSGQLNSHGCFYQQVKTKVFQLKRKEYEMKLHTEAQIQEEGTVVELTGRQSSEITRTITKLSFVKVDSHFRQGIPFFGQVRLVDGKGVPIPNKVIFIRGNEANYYSNATTDEHGLVQFSINTTNVMGTSLTVRVNYKDRSPCYGYQWVSEEHEEAHHTAYLVFSPSKSFVHLEPMSHELPCGHTQTVQAHYILNGGTLLGLKKLSFYYLIMAKGGIVRTGTHGLLVKQEDMKGHFSISIPVKSDIAPVARLLIYAVLPTGDVIGDSAKYDVENCLANKVDLSFSPSQSLPASHAHLRVTAAPQSVCALRAVDQSVLLMKPDAELSASSVYNLLPEKDLTGFPGPLNDQDDEDCINRHNVYINGITYTPVSSTNEKDMYSFLEDMGLKAFTNSKIRKPKMCPQLQQYEMHGPEGLRVGFYESDVMGRGHARLVHVEEPHTETVRKYFPETWIWDLVVVNSAGVAEVGVTVPDTITEWKAGAFCLSEDAGLGISSTASLRAFQPFFVELTMPYSVIRGEAFTLKATVLNYLPKCIRVSVQLEASPAFLAVPVEKEQAPHCICANGRQTVSWAVTPKSLGNVNFTVSAEALESQELCGTEVPSVPEHGRKDTVIKPLLVEPEGLEKETTFNSLLCPSGGEVSEELSLKLPPNVVEESARASVSVLGDILGSAMQNTQNLLQMPYGCGEQNMVLFAPNIYVLDYLNETQQLTPEVKSKAIGYLNTGYQRQLNYKHYDGSYSTFGERYGRNQGNTWLTAFVLKTFAQARAYIFIDEAHITQALIWLSQRQKDNGCFRSSGSLLNNAIKGGVEDEVTLSAYITIALLEIPLTVTHPVVRNALFCLESAWKTAQEGDHGSHVYTKALLAYAFALAGNQDKRKEVLKSLNEEAVKKDNSVHWERPQKPKAPVGHFYEPQAPSAEVEMTSYVLLAYLTAQPAPTSEDLTSATNIVKWITKQQNAQGGFSSTQDTVVALHALSKYGAATFTRTGKAAQVTIQSSGTFSSKFQVDNNNRLLLQQVSLPELPGEYSMKVTGEGCVYLQTSLKYNILPEKEEFPFALGVQTLPQTCDEPKAHTSFQISLSVSYTGSRSASNMAIVDVKMVSGFIPLKPTVKMLERSNHVSRTEVSSNHVLIYLDKVSNQTLSLFFTVLQDVPVRDLKPAIVKVYDYYETDEFAIAEYNAPCSKDLGNA
[1]
  Kd: 100 nM
[2]
  IC50: ~100 nM
[3]
  infection of Vero cells by serotype 1 of DV: inhibited infection
[4]
  infection of Vero cells by serotype 3 of DV: inhibited infection
[5]
  binding to the surface of Vero cells: concentration-dependant and saturable binding behavior
